Publication PMC7105676

target: T1, FlhF-His6 (Campylobacter jejuni 81-176?) (UniProt O52908); assay: EMSA
T1 sequence: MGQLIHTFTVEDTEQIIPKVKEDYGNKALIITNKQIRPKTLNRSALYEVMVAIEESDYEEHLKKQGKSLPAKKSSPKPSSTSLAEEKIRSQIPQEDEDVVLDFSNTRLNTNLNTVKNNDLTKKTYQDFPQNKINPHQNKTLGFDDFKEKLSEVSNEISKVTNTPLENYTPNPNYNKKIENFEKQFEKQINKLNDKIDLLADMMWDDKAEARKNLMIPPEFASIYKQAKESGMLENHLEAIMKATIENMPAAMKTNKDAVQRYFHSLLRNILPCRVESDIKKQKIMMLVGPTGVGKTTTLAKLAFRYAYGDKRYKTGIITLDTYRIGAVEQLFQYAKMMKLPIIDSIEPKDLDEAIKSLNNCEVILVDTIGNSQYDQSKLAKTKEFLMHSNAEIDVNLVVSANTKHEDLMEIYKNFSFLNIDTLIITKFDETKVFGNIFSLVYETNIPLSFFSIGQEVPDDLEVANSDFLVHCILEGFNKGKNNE

Row | Sequence | binding
1 | AAGCTCTATCAAAAGAAGTTTTAAAAACGCATCCTTATCTAAGGTAGCGTTTGGATTGCTCACTATTCCTGAGCTACTGCTTGAATCTGTTCTAGTTGTCCCACTAGTACTTCCTGAAGAAGTAGTACCTGAAGTTGTAGCAGTGGTATTTAAATTCCAATCCGATGATGATATCATTATAAACTCCTTTTTATTTAGTTTTTTATTATTTAAGCAATAAGTGTTCCAATTATCGTCGACCTGCAGGCA (double strand) [fliK promoter] | no binding
2 | AATTCATCCTAAGCCTTTTAAAAAATTTCTGCTATGGTATCCAATTTGCGCTTAATTTTGAATTTACTTTTTTTTAAGTATAATAAATTATCGCATTTTGTTCGCCAAATTCCACGGTAAAACGCAAGGGTAAAATTTTGACATAAGTTTCGCTTTGGGCATGTAATAAGTCAGTATTAACAATATCCTTAACACTGATTCTAGCTCCATCGTCGACCTGCAGGCA (double strand) [flgR promoter] | no binding
3 | ATAACGCCATTAATCCCCACTACACCACTTTTACACATATCTTCAGAAATAGCTCTTCTTTTCGTGATATTAACTACATTTAAAAATTTATCTACTCTCATAAAAGCAATTTTAGCAAAAAAAATCAATTTTTGGAACAAAATTTGCTTATGCCTTTGCTTTATTTTTTAAGAAAATAGCAAGTAAAAACTTTTCTTTAATGAAATTTGGATACAATTTTACAATTTTCAAATCTATTTTAACAAAGGATATCGTCGACCTGCAGGCA (double strand) [rpoN promoter] | no binding
4 | CTTTTAAATCCTTTCAAAATATTGCATCGAAAAGATTAAAGCAAGAAGTGTTCCAAGTTTTAATTTGATTAAAAATTTTAAAGCTTATAAATAAAAAGCCTAGTATTTAAACTAGGCTTGGATTTGTATAAATTGCAGCATTCTTAAAAGAATGTAAAGTGATTTTAAGATTTAACTATTGTAATCGTCGACCTGCAGGCA (double strand) [flaB promoter] | no binding
5 | TCATTTATCATTCCTCTAATAAAATCTTAAAATCATTCAAATCAAGTAAAAGCAAATTCTGTTCGCATATTTTATCAAATTCCTTGCTAAAACCATTTTTTGAGATTATAATGTAATAATTTGGAGCCAAATTTAAAGACTTTGCTTTTGATTTTAAAAGATTTAAAATATTTTTACAAATTTTTTTATTTTATCGTCGACCTGCAGGCA (double strand) [flgS promoter] | binds
6 | TGCCTGCAGGTCGACGATAAATATCGACCTAAAGCGTAAATTTTATACCTTAAAAAGAAAAAATTATAATTTTAACAGAGCTTTAGAAAAATTTGAAAAAATATTCAAATCATAAACATAATAACCGATTTATATAGAAAGTTAAGCAATTTTTAGATAAAATCCAAAGCTTATATAAATTTCAAGGATAATCAA (double strand) [rpoD promoter] | binds
7 | TGCCTGCAGGTCGACGATAAGAAATTTGGATCAACTAGCTTAAGCTTTTACGCTTCTTAACTTACTTGGAACACTTCTTGCTTGATCTATCATCAACAATAGATTAAAGGAAGAATCCA (double strand) [PflgI fragment 4] | binds
8 | TGCCTGCAGGTCGACGATAATTTAATCATTTTTGAACACCACTCAACCATAAAAACTCCCGAAAAAATCCAAAATTTTCAAAAAGTCAAAGAAAAGAAATTTGGATCAACTAGCTTAAGCTTTTACGCTTCTTAACTTACTTGGAACACTTCTTGCTTGATCTATCATCAACAATAGATTAAAGGAAGAATCCA (double strand) [PflgI fragment 1] | binds
9 | TGCCTGCAGGTCGACGATACCAGTTTCACCACTCGGGCTCATTTTTAAGATTTAAAGCTAAAATTATACTTTTTTAGGCTAAAAAATAACTTTAAAAATAAAAAGTATTTTCAAAAAGACGATATAAAATTATATAATTTAAATTTTTGGAACAGTTATTGCTTTTGTTTATTAGCAATATTTGAAAAGATTTTAACTTTAATACTTTAGAGGAAA (double strand) [flgL promoter] | no binding
10 | TGCCTGCAGGTCGACGATAGAAAATTTAGATTTAAAGACTTTAAATTTAATCATTTTTGAACACCACTCAACCATAAAAACTCCCGAAAAAATCCAAAATTTTCAAAAAGTCAAAGAAAAGAAATTTGGATCAACTAGCTTAAGCTTTTACGCTTCTTAACTTACTTGGAACACTTCTTGCTTGATCTATCATCAACAATAGATTAAAGGAAGAATCCA (double strand) [flgI promoter (PflgI, 201 bp)] | binds
11 | TGCCTGCAGGTCGACGATCAACCATAAAAACTCCCGAAAAAATCCAAAATTTTCAAAAAGTCAAAGAAAAGAAATTTGGATCAACTAGCTTAAGCTTTTACGCTTCTTAACTTACTTGGAACACTTCTTGCTTGATCTATCATCAACAATAGATTAAAGGAAGAATCCA (double strand) [PflgI fragment 2] | binds
12 | TGCCTGCAGGTCGACGATGCTTTTACGCTTCTTAACTTACTTGGAACACTTCTTGCTTGATCTATCATCAACAATAGATTAAAGGAAGAATCCA (double strand) [PflgI fragment 5] | no binding
13 | TGCCTGCAGGTCGACGATGGGTGTGATTTTGGTAATTTTCATTACACAAAAGACCAAAGCTTCATAAACTCCCAAAATACCTTTAAATTTTTTCTATAAATTTTTAAAAAATTTCAAAAGTTGGAACAGAACTTGCTTGTAAACTTCACATAAACGCAAAAGTTTTTTAAAGCCAAAGCGTTAAATTTTTTAAAGCAATATTTTATAAAGGATTTAAGA (double strand) [flgE promoter] | no binding
14 | TGCCTGCAGGTCGACGATTGCAGATGCAAACATTAAAAATCCTTTAAATTTAGAATTCTTAGGTCATTTAAGCGCTTCTAAAGATGTAAGTGGTAGTATTAAAAAAAGAACTTTATTTAGCGATGAAAACACAGCCTCAAGTGATGAGATTAAAGCCCTAGCTTCCAAGCTTTTATATAGATTGGAACGGAAAGTGCTTGATA (double strand) [fliA promoter] | binds
15 | TGGATTCTTCCTTTAATCTATTGTTGATGATAGATCAAGCAAGAAGTGTTCCAAGTAAGTTAAGAAGCGTAAAAGCTTAAGCTAGTTGATCCAAATTTCTTTTCTTTGACTTTTTGAAAATTTTGGATCGTCGACCTGCAGGCA (double strand) [PflgI fragment 3] | binds
16 | TTCTTTGACTTTTTGAAAATTTTGGATTTTTTCGGGAGTTTTTATGGTTGAGTGGTGTTCAAAAATGATTAAATTTAAAGTCTTTAAATCTAAATTTTCTATCGTCGACCTGCAGGCA (double strand) [PflgI fragment 6] | no binding
17 | TTTAAATCCTTTTAAATAATTTCAAACTCATCCATGAGCTTGTTAAATGCTATATCGTTACTTTTTTTAAAAATTTATACCTTAAACTAAAAAATTATAAATATCGCATTTTAATTGGAATCTGCAAATAAAAATTTCAAGCCACTGTTTATAAAATGTCAAGTATATTAATAAATACTCTCTTTCATCTTCAATTATCGTCGACCTGCAGGCA (double strand) [flaA promoter] | no binding
